Source: patent US20110126301A1 (WALTER AND ELIZA HALL INSTITUTE OF MEDICAL RESEARCH, published 2011)

B1: soluble FLAG-tagged mouse 5B6 including stalk (receptor)
chain: ASISARQNSGLHHILDAQKMVWNHRGARQDYKDDDDKTREQQERLIQQDTALVNLTQWQRKYTLEYCQALLQRSLHSGTDASTGPVLLTSPQMVPQTLDSKETGSDCSPCPHNWIQNGKSCYYVFERWEMWNISKKSCLKEGASLFQIDSKEEMEFISSIGKLKGGNKYWVGVFQDGISGSWFWEDGSSPLSDLLPAERQRSAGQICGYLKDSTLISDKCDSWKYFICEKKAFGSCI
notes: also called soluble m5B6; soluble mouse 5B6
B2: soluble FLAG-tagged human 5B6 including stalk (receptor)
chain: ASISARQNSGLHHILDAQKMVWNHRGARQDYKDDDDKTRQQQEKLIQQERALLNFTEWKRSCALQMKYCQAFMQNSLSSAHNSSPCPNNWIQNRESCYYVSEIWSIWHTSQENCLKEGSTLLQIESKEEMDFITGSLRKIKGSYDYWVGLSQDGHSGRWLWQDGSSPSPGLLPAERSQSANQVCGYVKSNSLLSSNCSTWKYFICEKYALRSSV
notes: also called soluble h5B6; soluble human 5B6
B3: rat mAb 24/04-10B4 (anti-5B6 / anti-Clec9A antibody) (antibody, V domains shown)
VH: AVQIVESGGGLVQPKESLKISCTASGFTFSNAAIYWVRQTPGKGLEWVGRIRTRPSKYATDYADSVRGRFTISRDDSKSMVYLQMDNLRTEDTAMYYCTPRATEDVPFYWGQGVMVTVSS
VL: DIVMTQTPSSQAVSAGEKVTMNCKSSQSVLYDENKKNYLAWYQQKSGQSPKLLIYWASTGESGVPDRFIGSGSGTDFTLTISSVQAEDLAVYYCQQYYDFPPTFGGGTKLELKR
notes: Rat IgG2a, kappa, from hybridoma 24/04-10B4 (peptide immunisation); Used biotinylated or APC-conjugated in flow cytometry; also called anti-m5B6 mAb; anti-5B6 mAb

Key:
[1] = biological target: T1, human 5B6 (CLEC9A), membrane bound (human, UniProt Q6UXN8 1-241); experiment: flow cytometry on transiently transfected 293T cells; anti-FLAG 9H10-biotin and streptavidin-PE
T1 construct: Full length on transfectant cells or native on human blood BDCA-3+ DC; also called h5B6; HEEE9341
T1 sequence (Q6UXN8 whole entry): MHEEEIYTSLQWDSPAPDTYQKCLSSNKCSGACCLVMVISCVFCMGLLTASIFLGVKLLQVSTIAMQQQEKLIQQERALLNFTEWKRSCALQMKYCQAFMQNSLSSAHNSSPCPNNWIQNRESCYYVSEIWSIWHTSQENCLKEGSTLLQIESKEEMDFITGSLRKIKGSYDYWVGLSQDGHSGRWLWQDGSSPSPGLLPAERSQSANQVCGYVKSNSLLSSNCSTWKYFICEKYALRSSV
Source text: To identify binding partners for the 5B6 molecule, the inventors generated soluble FLAG-tagged m5B6 and h5B6 which encompassed the ectodomain of 5B6 including the stalk region and the C-type lectin-like domain (CTLD), denoted in FIG. 11A as “Original (with stalk)”. A soluble FLAG-tagged ectodomain version of the C-type lectin Cire was also generated as a control molecule. […] Thus, soluble 5B6 can interact with membrane bound 5B6 in a cross-species manner.

[2] = biological target: T1, human 5B6 (CLEC9A), membrane bound; experiment: flow cytometry on cells expressing 5B6

Binder | binding result [1] | binding result [2]
B1 | binds | 
B2 | binds | 
B3 |  | binds
